Consider 3 molecules from US20220119541A1 (PHARMAEXPLORER, published 2022).

Where two headings read alike, the source gives them in different places.

Assay [1] concerns the target T1, cGITR-ECD-hFc (rhesus; human, UniProt F7DDV8 14-149). Kind of assay: ELISA, cGITR-ECD-hFc coated on plate, HRP anti-human Fab detection. A general note: In an ELISA, binding on a coated surface is turned into a signal by an enzyme label.
Assay [2] concerns the target T2, hGITR-ECD-hFc (human, UniProt Q9Y5U5 26-161).
T2 construct: ECD put first; also called immunogen A; human GITR extracellular domain protein with hFc tag; not shown: human IgG Fc fragment (hFc) of the pCpC vector
T2 chain: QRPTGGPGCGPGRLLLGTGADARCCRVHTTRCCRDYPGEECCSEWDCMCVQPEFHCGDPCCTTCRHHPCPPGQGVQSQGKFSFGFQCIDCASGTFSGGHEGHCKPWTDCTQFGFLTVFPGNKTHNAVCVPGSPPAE
Kind of assay: ELISA, hGITR-ECD-hFc coated on plate, HRP anti-human Fab detection. The protocol:
(§1) HGITR-ECD-hFc protein and cGITR-ECD-hFc protein were diluted to 1 μg/ml with PBS hydrochloric acid buffer (pH 7.2), and 100 μl dilution was added to 96-well ELISA microplate, and incubated at 4° C. overnight. The microplate was washed three times with 300 μl/well wash buffer PBST (PBS+0.05% Tween-20), 300 μl blocking buffer (PBST+1% BSA) was added to each well, and incubated at room temperature for 2 hours. The plate was washed three times, 100 μl, 10 μg/ml anti-GITR antibody was added to each well, and was incubated at 37° C. for 1 hour. The plate was washed three times, 100 μl horseradish peroxidase (HRP) labeled anti-human Fab secondary antibody was added to each well, and was incubated at 37° C. for half an hour. The plate was washed three times, 100 μl tetramethylbenzidine (TMB) was added to each well. After 15 minutes of color development, 50 μl 1N HCl termination solution was added to each well, and the OD450 value was read with a plate reader. The EC50 of the binding curve was calculated by GraphPad Prism software.

Assay [3] deals with T3, monkey GITR (full length, on cells) (monkey).
T3 construct: whole, on cells; also called cGITR
Description: flow cytometry (FACS) on 293F-cGITR cells, MFI curve fit. The procedure:
(§2) The pIRES plasmid with the monkey-derived GITR full-length gene was transfected into the HEK293 cell line to construct a HEK293 stable cell line containing monkey GITR (herein referred to as HEK293-cGITR stable cell line), wherein the database accession number of the monkey GITR nucleotide sequence is XP_005545180.1. The tool antibody Tab9H6v3 was constructed with reference to the patent (US_2015_0064204_A1). […] The medium was aspirated, and the cells were incubated with chimeric anti-GITR antibody or IgG1 isotype control antibody in PBS+2% FBS for 1 hour so that the antibody binds to the GITR protein expressed on the cell surface. Cells were collected and washed, and then incubated with anti-human antibody conjugated with fluorescent dye at 4° C. for 1 hour. Mean fluorescence intensity (MFI) of chimeric anti-GITR antibodies bound to cells expressing hGITR or cGITR was determined by flow cytometry. The EC50 of the fitting curve was calculated by GraphPad Prism software. The antibody to be tested can bind to human or monkey GITR protein on the cell surface. The data in the table is the average fluorescence intensity values of the cell populations measured by MFI.
(Flow cytometry measures light scatter and fluorescence of single cells or particles in a stream.)

Assay [4] addresses T3, monkey GITR (full length, on cells). The assay is described as above. The protocol: as §2
This is another data set of the same source.

The target in assay [5] is T2, hGITR-ECD-hFc. Kind of assay: ELISA, hGITR-ECD-hFc coated on plate, HRP anti-human Fab detection. The procedure:
as §1
The binding activity of the engineered fully human anti-GITR antibody to the hGITR-ECD-hFc protein or the cGITR-ECD-hFc protein was detected by an enzyme-linked immunosorbent assay iaccording to the step (1) of Example 5.

For assay [6], the target named is T2, hGITR-ECD-hFc. Description: SPR (Biacore T200), hGITR-ECD-hFc immobilised on CM5 chip, antibody as analyte. The protocol: (§3) The antigen hGITR-ECD-hFc was immobilized on the chip surface in manual mode using the running buffer HBS-EP+(10 mM HEPES, 150 mM NaCl, 3 mM EDTA, 0.05% P20, pH 7.4). First, a fresh mixture of 50 mM NHS and 200 mM EDC was used to activate the flow cell 4 of the tandem S CM5 sensor chip. The antigen was then diluted to 1 μg/ml with 10 mM NaAC (pH 5.0) and was injected into flow cell 4 for approximately 40 seconds. Finally, 1 M ethanolamine was used to block the remaining active coupling sites.
Buffer flow was maintained for 600 seconds to determine dissociation. To remove the test antibody from the surface, 10 mM Glycine-HCl (pH 1.5) was injected into flow cells 1 and 4 at a flow rate of 10 μ L/min for 30 seconds. The above steps were repeated for each concentration of continuously diluted antibodies.
The KD value of each antibody was evaluated using Biacore T200 evaluation software 3.0, where flow cell 1 was used as a reference flow cell.

For assay [7], the target named is T1, cGITR-ECD-hFc. Kind of assay: ELISA, cGITR-ECD-hFc coated on plate, HRP anti-human Fab detection. The source holds these as a separate data set.
The target of assay [8] is T4, human GITR (full length, on cells) (human, UniProt Q9Y5U5 26-241).
T4 construct: whole, on cells; Also used here for hGITR on the Jurkat reporter cells and on spleen cells of mice knocked-in with the human GITR gene; also called hGITR
T4 sequence (looked up): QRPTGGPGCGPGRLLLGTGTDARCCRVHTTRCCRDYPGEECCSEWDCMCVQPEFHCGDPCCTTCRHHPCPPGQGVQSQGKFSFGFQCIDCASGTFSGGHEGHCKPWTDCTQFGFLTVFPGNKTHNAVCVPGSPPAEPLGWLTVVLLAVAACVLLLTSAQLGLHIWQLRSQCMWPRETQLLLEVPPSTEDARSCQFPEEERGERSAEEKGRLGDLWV
Kind of assay: flow cytometry (FACS) on 293F-hGITR cells, MFI curve fit. The protocol:
as §2

Assay [9] deals with T4, human GITR (full length, on cells). Kind of assay: cell-based or functional assay.
Assay [10] shares this target. Description: flow cytometry (FACS) on 293F-hGITR cells, MFI curve fit. The procedure: as §2
This is another data set of the same source.

The target is the same in assay [11]. Kind of assay: cell-based or functional assay. The source holds these as a separate data set.
Assay [12] deals with T2, hGITR-ECD-hFc. Description: SPR (Biacore), hGITR-ECD-hFc immobilised on CM5 chip, antibody as analyte. The protocol:
as §3
Binding kinetics and affinity of the engineered fully human anti-GITR antibody to the antigen hGITR-ECD-hFc protein were tested by Biacore according to step (5) of Example 5, and the results are shown in Table 17.

T1 sequence (F7DDV8 entry or part of it): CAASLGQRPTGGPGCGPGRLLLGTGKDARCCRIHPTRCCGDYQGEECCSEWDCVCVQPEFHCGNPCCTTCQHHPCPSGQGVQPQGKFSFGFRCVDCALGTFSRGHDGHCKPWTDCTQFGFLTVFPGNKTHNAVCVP

B1: 3503-hab019 (antibody, V domains shown)
VH: QVQLVESGGGVVQPGRSLRLSCAASGFTFSSYGMHWVRQAPGKGLEWVAVIWYAGSRKFYADSVEGRFTISRDNSKNTLYLQMSSVRPEDTAVYYCARGGSLDGGFFYYGMDVWGQGTTVTVSS
VL: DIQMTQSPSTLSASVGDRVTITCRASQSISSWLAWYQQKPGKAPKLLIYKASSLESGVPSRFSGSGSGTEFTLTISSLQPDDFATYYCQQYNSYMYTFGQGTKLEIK
notes: also called 96A10H9; fully human anti-GITR antibody
B1: the EC50 was determined as 0.0717 nM with cGITR-ECD-hFc [1]; 0.0791 nM with hGITR-ECD-hFc [2]; 0.53 nM in assay [3]; 0.418 nM in [4]; 0.11 nM with hGITR-ECD-hFc [5]; 0.115 nM with cGITR-ECD-hFc [7]. Besides, the figures for the half-maximal effective concentration (EC50) in [8] and in assay [10] were 0.222 nM and 0.25 nM, respectively. For the same molecule, the Kd in the assay with hGITR-ECD-hFc [6] came to 0.401 nM. Moreover, in the assay with hGITR-ECD-hFc [6], the koff was found to be 0.000205 s⁻¹. The association rate constant (kon) with hGITR-ECD-hFc [6] is 512000 M⁻¹ s⁻¹. In addition, the “Activation of NF-κB activity, EC50 (nM), Coupling” value (shortened to “Activation … (nM), Coupling”) stood at 4.42 nM in [9] and 10.9 nM in assay [11]. Further, the “Activation of NF-κB activity, EC50 (nM), Non-coupling” value (“Activation … Non-coupling” for short) turned out to be 0.281 nM in [9] and 0.166 nM in assay [11].

B2: 3503-hab070 (antibody, V domains shown)
VH: QVQLVESGGGVVQPGRSLRLSCAASGFTFSSYGMHWVRQAPGKGLEWVAVIWYETSNKFYVDSVKGRFTISRDNSKNTLYLQMNSLRAEDTAVYYCARYGASSGWYWYFDLWGRGTLVTVSS
VL: DIQLTQSPSFLSASVGDRVTITCRASQGISSFLAWYQQKPGKAPKLLIYAASTLQSGVPSRFSGSGSGTEFTLTISSLQPEDFATYCCQQLNSYPFTFGQGTKLEIK
notes: also called 272G5E1; fully human anti-GITR antibody
For the molecule B2, the EC50 in the assay with cGITR-ECD-hFc [1] was 0.0529 nM; in the assay with hGITR-ECD-hFc [2], 0.0544 nM; in [3], 0.301 nM; in assay [4] it was 0.258 nM; in the assay with hGITR-ECD-hFc [5] it was 0.078 nM; in the assay with cGITR-ECD-hFc [7], 0.063 nM. For the same molecule, the results for the EC50 in assay [8] and in assay [10] were 0.141 nM and 0.203 nM, respectively. For the same molecule, the equilibrium dissociation constant (Kd) with hGITR-ECD-hFc [6] amounted to 0.251 nM. The same molecule yielded a koff with hGITR-ECD-hFc [6] of 0.000185 s⁻¹. The molecule also came in with a kon in the assay with hGITR-ECD-hFc [6] of 737000 M⁻¹ s⁻¹. The “Activation … (nM), Coupling” value in assay [9] came to 2.55 nM; in assay [11], 5.78 nM. Further, the “Activation … Non-coupling” value was found to be 0.276 nM in assay [9] and 0.0959 nM in [11].

B3: 3503-hab070e1 (antibody, V domains shown)
VH: QVQLVESGGGVVQPGRSLRLSCAASGFTFSSYGMHWVRQAPGKGLEWVAVIWYETSNKFYVDSVKGRFTISRDNSKNTLYLQMNSLRAEDTAVYYCARYGASSGWYWYFDLWGRGTLVTVSS
VL: DIQLTQSPSFLSASVGDRVTITCRASQGISSFLAWYQQKPGKAPKLLIYAASTLQSGVPSRFSGSGSGTEFTLTISSLQPEDFATYYCQQLNSYPFTFGQGTKLEIK
notes: also called 272G5E1; engineered fully human anti-GITR antibody
B3: the 50% effective concentration (EC50) in assay [4] amounted to 0.264 nM. The EC50 with hGITR-ECD-hFc [5] was determined as 0.074 nM. In the assay with hGITR-ECD-hFc [12], binding was characterised by a dissociation constant (Kd) of 0.537 nM, the koff was found to be 0.000381 s⁻¹ and the kon came to 710000 M⁻¹ s⁻¹. In addition, the EC50 with cGITR-ECD-hFc [7] was 0.062 nM. This molecule showed an EC50 in [8] of 0.169 nM. For the same molecule, in [11], the “Activation … (nM), Coupling” value amounted to 4.08 nM and the “Activation … Non-coupling” value amounted to 0.0957 nM.

The EC50 is the concentration at which the effect is half-maximal. Usually Kd stands for a measure of binding affinity in units of concentration. In general, koff refers to a measure of how fast the partners let go of each other. In general, kon refers to a measure of how fast the partners come together.
